# Measured values reported in US20100098709A1 (AstraZeneca / MedImmune, published 2010).
# T1: FLAG HIS tagged soluble IL-6Ra (human, UniProt P08887 20-358, limits assumed)
# T1 construct: the key was followed; also called HIS FLAG sIL-6R; FLAG-sIL-6R
# T1 sequence: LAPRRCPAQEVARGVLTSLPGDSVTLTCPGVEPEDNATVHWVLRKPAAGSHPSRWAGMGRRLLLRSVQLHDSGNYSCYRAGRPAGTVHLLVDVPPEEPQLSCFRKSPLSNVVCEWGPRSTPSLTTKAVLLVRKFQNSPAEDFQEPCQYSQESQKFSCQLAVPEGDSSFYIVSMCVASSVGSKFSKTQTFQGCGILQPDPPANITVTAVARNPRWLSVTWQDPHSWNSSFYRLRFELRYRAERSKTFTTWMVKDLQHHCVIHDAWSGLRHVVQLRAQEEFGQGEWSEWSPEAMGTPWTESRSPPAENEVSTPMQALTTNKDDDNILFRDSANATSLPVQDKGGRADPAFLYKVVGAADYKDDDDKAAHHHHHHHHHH
# How the values were obtained:
# [1] = target: T1, FLAG HIS tagged soluble IL-6Ra; experiment: phage ELISA
# [2] = target: T1, FLAG HIS tagged soluble IL-6Ra; experiment: phage ELISA, antigen on anti-FLAG plate
# [3] = target: T2, biotinylated anti-FLAG monoclonal antibody (Sigma F9291); experiment: phage ELISA, anti-FLAG treated plate alone
# T2 construct: Control coat of the phage ELISA plates (streptavidin plate treated with the anti-FLAG antibody, then MPBS only); also called anti FLAG antibody treated plates alone
# [4] = target: T3, HIS FLAG tagged human IL-6 (human, UniProt P05231 30-212); experiment: ELISA and HTRF soluble binding assay, IgG
# T3 construct: also called HIS FLAG IL-6; FLAG-IL-6
# [5] = target: T1, FLAG HIS tagged soluble IL-6Ra; experiment: ELISA and HTRF soluble binding assay, IgG
# [6] = target: T4, FLAG HIS tagged Hyper IL-6; experiment: ELISA, IgG captured by anti-human Fc, 50 nM protein
# T4 construct: also called HIS FLAG Hyper IL-6
# Experimental: (§1) Immunoassay plates were washed 3 times using PBST, then blocked by addition of 300 μl/well MPBS for 1 h at room temperature. After a second washing step 2 μg/ml of the anti-complex antibody in PBS was added to the plate at 50 μl/well. The plates were incubated for 1 h at room temperature before being washed again as previously described. FLAG-tagged reagents (IL-6, sIL-6R, Hyper Complexes) were diluted to 50 nM in MPBS. Complexes were made using 50 nM of the FLAG-tagged component and a 2-fold molar excess of the untagged component. Four-fold serial dilutions were prepared of each of the reagents, which were then added to duplicate wells of the immunoassay plates at 50 μl/well. Control wells containing 50 nM irrelevant protein (in this case his FLAG tagged murine GMCSF-R), or MPBS only were also prepared. The immunoassay plates were then incubated for 1 h at room temperature. After a further washing step, biotinylated anti-FLAG monoclonal antibody (Sigma) diluted to 1 μg/ml in MPBS was added to all wells at 50 μl/well. The plates were incubated for 1 h at room temperature before the plates were again washed as before. Europium labelled streptavidin (Perkin Elmer 1244-360) was diluted to 100 ng/ml in Delfia assay buffer (Perkin Elmer 4002-0010), added to all wells at 50 μl/well and incubated for 1 h at room temperature. The immunoassay plates were then washed 7 times in Delfia wash buffer, consisting of 0.05 M Tris buffered saline (NaCl-0.138 M, KCl-0.0027 M) Tween 20 (0.05%), pH 8.0 (at 25° C.). A 50 μl volume of Delfia enhancement solution (Perkin Elmer 4001-0010) was then added to all wells. The plates were incubated for 10 mins before the Time-resolved fluorescence was measured at 620 nm using an EnVision plate reader.
# [7] = target: T3, HIS FLAG tagged human IL-6; experiment: as above
# Experimental: as §1
# [8] = target: T5, Complex 1: HIS FLAG IL-6/sIL-6R (human, UniProt P05231 30-212; P08887 20-358, limits assumed); experiment: as above
# T5 construct: Non-covalent complex made by pre-incubating the two proteins; The untagged sIL-6R was bought; also called IL-6/sIL-6R complex consisting of FLAG tagged ligand and untagged receptor
# Experimental: as §1
# [9] = target: T6, Complex 2: IL-6/HIS FLAG sIL-6R (human, UniProt P05231 30-212; P08887 20-358, limits assumed); experiment: as above
# T6 construct: Non-covalent complex made by pre-incubating the two proteins; Untagged IL-6 was bought; also called IL-6/sIL-6R complex consisting of untagged ligand and FLAG tagged receptor
# Experimental: as §1
# [10] = target: T1, FLAG HIS tagged soluble IL-6Ra; experiment: as above
# Experimental: as §1
# [11] = target: T4, FLAG HIS tagged Hyper IL-6; experiment: HTRF soluble binding assay, 1 nM IgG, 20 nM HIS FLAG protein
# Experimental: (§2) Purified IgG from positive clones identified from screening of crude periplasmic scFv and purified scFv, were tested in a HTRF® assay for binding to FLAG HIS tagged Hyper IL-6, FLAG HIS IL-6 and FLAG HIS sIL-6R.
# (§3) Example data for binding of IgG of positive clones identified from screening of crude periplasmic scFv. Data shown in table 3 is expressed as % delta F at an IgG concentration of 1 nM (final assay concentration) and 20 nM of HIS FLAG protein (final assay concentration).
# [12] = target: T3, HIS FLAG tagged human IL-6; experiment: as above
# Experimental: as §2, §3
# [13] = target: T7, HIS FLAG irrelevant ligand; experiment: as above
# T7 construct: Unnamed control of the HTRF soluble assay; also called irrelevant FLAG HIS ligand
# Experimental: as §2, §3
# [14] = target: T8, HIS FLAG irrelevant receptor; experiment: as above
# T8 construct: Unnamed control of the HTRF soluble assay; also called irrelevant FLAG HIS receptor
# Experimental: as §2, §3
# [15] = target: T1, FLAG HIS tagged soluble IL-6Ra; experiment: as above
# Experimental: as §2, §3
# [16] = target: T4, FLAG HIS tagged Hyper IL-6; experiment: HTRF, inhibition of Hyper IL-6 binding to biotinylated gp130 Fc; IgG
# Experimental: Purified IgG from positive clones identified from screening of crude periplasmic scFv and purified scFv were tested in a HTRF® assay for inhibition of binding of FLAG HIS tagged Hyper IL-6 binding to biotinylated recombinant human gp130 Fc. This assay was performed as for purified scFv (Example 3) with the following modifications. 6 nM biotinylated human recombinant gp130 Fc (10 μl/well) was used to give a final concentration of 1 nM of gp130Fc.
# Purified scFv were diluted 1:3 by transferring 15 μl of purified scFv to 30 μl assay buffer and mixing by pipetting in 96 well plate (Greiner 650201). Dilutions were carried out sequentially in duplicate a further 9 times. 3 nM GP130 Fc (10 μl/well) to give a final concentration of 0.5 nM, 6 nM Hyper IL-6 (10 μl/well) to give a final concentration of 1 nM and combined HTRF reagents 2.598 nM anti-flag IgG labelled with cryptate and 30 nM anti-human Fc antibody labelled with XL665 (10 μl/well) were added to 30 μl of purified scFv titration in 96 well plate. 40 μl was then transferred to a black 384 well optiplate. All dilutions were performed in assay buffer.
Binder,binding result [1],Absorbance (450 nM) [2],Absorbance (450 nM) [3],binding result [5],Europium Counts [10] [counts],% delta F [13] [%],% delta F [14] [%],% delta F [15] [%],further results
"Antibody 2 scFv (scFv, V domains shown, also called Ab 2) VH: not shown VL: QAVLTQPSSVSGAPGQRVTISCAGSSSNIGAGYDVHWYQQVPGTAPKLLIYGDTNRPSGVPDRFSGSKFGTSASLTITGLQAEDEADYYCQSYDNSLSTSDWVFGGGTKVTVLG",no binding,0.083,0.052,–,–,–,–,–,–
"Antibody 3 scFv (scFv, V domains shown, also called Ab 3) VH: not shown VL: QSVLTQPPSVSGAPGQRVNISCTGSSSNIGAGYDVHWYQQLPGTAPKLLIYGNNNRPSGVPDRFSGSKSGTSASLAITGLQAEDEADYYCQSYDSSLSGYVFGTGTKVTVLG",no binding,0.056,0.049,–,–,–,–,–,–
"Antibody 1 scFv (scFv, V domains shown, also called Ab 1) VH: not shown VL: SYVLTQPPSVSVAPGQTATITCGGNNIGLKSVHWYQQKPGQAPLLVVHDDSARPSGIPERFSGSNSGNTATLTISRVEAGDEADYSCQVWDNSGGLWVFGGGTKVTVLG",no binding,0.059,0.052,–,–,–,–,–,–
"Antibody 4 scFv (scFv, V domains shown, also called Ab 4) VH: not shown VL: QAVLTQPSSVSGAPGQRVSISCTGSSSNIGAGYEVHWYQHLPGTAPKLLIYGNNNRPSGVPDRFSGSKSGTSASLAITGLQAEDEADYYCQSYDNNLPGSRVFGGGTKVTVLG",no binding,0.167,0.053,–,–,–,–,–,–
"Antibody 5 IgG (antibody, V domains shown, also called Ab 5) VH: not shown VL: QSVLTQPPSVSGAPGQRVTISCTGSSSNIGAGYDVHWYQQLPGTAPKLLIYGNSNRPSGVPDRFSGSKSGTSASLAITGLQAEDEADYYCQSYDSSLSGWVFGGGTKVTVLG",–,–,–,no binding,1500,1,3,9,binding result [4]: no binding; Europium Counts [6]: 383000 counts; Europium Counts [7]: 1730 counts; Europium Counts [8]: 120000 counts; Europium Counts [9]: 417000 counts; % delta F [11]: 331%; % delta F [12]: 4%; IC50 [16]: 0.7 nM

# More lines, main results first:
binding result [1],Absorbance (450 nM) [2],Absorbance (450 nM) [3],binding result [5],Europium Counts [10] [counts],% delta F [13] [%],% delta F [14] [%],% delta F [15] [%],Binder,further results
–,–,–,no binding,1340,8,11,4,"Antibody 1 IgG (antibody, V domains shown, also called Ab 1) VH: not shown VL: SYVLTQPPSVSVAPGQTATITCGGNNIGLKSVHWYQQKPGQAPLLVVHDDSARPSGIPERFSGSNSGNTATLTISRVEAGDEADYSCQVWDNSGGLWVFGGGTKVTVLG",–
–,–,–,no binding,2450,11,5,10,"Antibody 2 IgG (antibody, V domains shown, also called Ab 2) VH: not shown VL: QAVLTQPSSVSGAPGQRVTISCAGSSSNIGAGYDVHWYQQVPGTAPKLLIYGDTNRPSGVPDRFSGSKFGTSASLTITGLQAEDEADYYCQSYDNSLSTSDWVFGGGTKVTVLG",–
–,–,–,no binding,1420,10,11,6,"Antibody 3 IgG (antibody, V domains shown, also called Ab 3) VH: not shown VL: QSVLTQPPSVSGAPGQRVNISCTGSSSNIGAGYDVHWYQQLPGTAPKLLIYGNNNRPSGVPDRFSGSKSGTSASLAITGLQAEDEADYYCQSYDSSLSGYVFGTGTKVTVLG",–
–,–,–,no binding,2000,13,7,18,"Antibody 4 IgG (antibody, V domains shown, also called Ab 4) VH: not shown VL: QAVLTQPSSVSGAPGQRVSISCTGSSSNIGAGYEVHWYQHLPGTAPKLLIYGNNNRPSGVPDRFSGSKSGTSASLAITGLQAEDEADYYCQSYDNNLPGSRVFGGGTKVTVLG",–
